Consider 2 substances from patent US7090848.

Among the targets are CCR1 (UniProt P32246); CCR3 (UniProt P51677); CCR4 (UniProt P51679); CCR5 (UniProt P51681); CXCR4 (UniProt P61073).
Common to all, as to test: cell-based or functional assay

Sequence of UniProt P61073 (P61073 whole entry): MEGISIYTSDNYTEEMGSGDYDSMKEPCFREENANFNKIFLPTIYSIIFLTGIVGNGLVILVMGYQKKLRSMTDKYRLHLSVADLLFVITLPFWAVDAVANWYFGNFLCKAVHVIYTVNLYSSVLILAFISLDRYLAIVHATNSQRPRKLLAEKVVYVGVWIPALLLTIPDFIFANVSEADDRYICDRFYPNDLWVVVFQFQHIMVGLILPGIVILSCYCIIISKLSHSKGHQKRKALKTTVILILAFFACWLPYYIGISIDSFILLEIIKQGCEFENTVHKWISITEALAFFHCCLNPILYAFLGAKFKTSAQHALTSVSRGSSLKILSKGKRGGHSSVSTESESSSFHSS
Sequence of UniProt P51679 (P51679 whole entry): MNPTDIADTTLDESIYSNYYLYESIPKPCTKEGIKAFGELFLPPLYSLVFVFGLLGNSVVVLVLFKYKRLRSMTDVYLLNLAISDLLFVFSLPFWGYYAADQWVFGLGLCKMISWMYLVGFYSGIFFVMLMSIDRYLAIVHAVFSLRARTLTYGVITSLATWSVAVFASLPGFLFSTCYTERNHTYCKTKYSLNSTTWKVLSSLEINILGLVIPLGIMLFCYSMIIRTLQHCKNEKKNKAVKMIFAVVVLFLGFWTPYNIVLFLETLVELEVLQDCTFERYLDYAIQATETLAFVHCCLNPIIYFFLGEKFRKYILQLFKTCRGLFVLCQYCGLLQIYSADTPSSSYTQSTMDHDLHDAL
Sequence of UniProt P51677 (P51677 whole entry): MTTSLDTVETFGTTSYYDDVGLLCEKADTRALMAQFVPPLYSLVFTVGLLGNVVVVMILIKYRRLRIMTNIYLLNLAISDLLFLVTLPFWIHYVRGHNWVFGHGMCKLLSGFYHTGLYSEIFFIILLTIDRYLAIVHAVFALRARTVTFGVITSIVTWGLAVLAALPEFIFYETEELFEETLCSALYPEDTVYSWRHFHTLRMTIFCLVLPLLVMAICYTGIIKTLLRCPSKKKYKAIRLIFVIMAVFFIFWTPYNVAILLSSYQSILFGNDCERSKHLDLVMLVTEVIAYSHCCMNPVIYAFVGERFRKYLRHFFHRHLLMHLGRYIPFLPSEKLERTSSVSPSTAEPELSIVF
Sequence of UniProt P51681 (P51681 whole entry): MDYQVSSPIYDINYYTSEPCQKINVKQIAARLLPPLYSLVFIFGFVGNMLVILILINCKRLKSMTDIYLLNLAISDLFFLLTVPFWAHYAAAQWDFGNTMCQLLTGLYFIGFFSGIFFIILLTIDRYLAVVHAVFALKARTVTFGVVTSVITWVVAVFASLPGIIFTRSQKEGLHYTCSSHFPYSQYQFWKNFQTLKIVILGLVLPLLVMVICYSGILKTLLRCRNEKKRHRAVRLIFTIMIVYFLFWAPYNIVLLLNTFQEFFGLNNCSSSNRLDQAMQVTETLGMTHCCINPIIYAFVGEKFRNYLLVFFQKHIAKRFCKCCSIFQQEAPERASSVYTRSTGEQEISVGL
Sequence of UniProt P32246 (P32246 whole entry): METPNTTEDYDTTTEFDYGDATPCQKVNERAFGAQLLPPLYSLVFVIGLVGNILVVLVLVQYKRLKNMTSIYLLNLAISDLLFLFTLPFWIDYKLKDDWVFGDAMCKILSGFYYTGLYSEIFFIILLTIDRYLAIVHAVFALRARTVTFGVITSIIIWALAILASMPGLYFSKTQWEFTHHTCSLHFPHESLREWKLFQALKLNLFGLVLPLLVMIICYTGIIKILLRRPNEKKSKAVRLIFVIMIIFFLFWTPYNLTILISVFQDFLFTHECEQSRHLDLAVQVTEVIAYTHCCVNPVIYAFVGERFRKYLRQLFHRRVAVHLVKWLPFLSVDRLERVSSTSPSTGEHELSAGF

On to HIV-1 AD8 envelope, for which, in the assay with CCR1, the Infectivity Titer In HOS-CD4 Cells Expressing CCR1 is < 4 titer (1:x). The Infectivity Titer In HOS-CD4 Cells Expressing CCR3 with CCR3 is < 4 titer (1:x). For the same substance, the Infectivity Titer In HOS-CD4 Cells Expressing CCR4 with CCR4 was < 4 titer (1:x). In addition, in the assay with CCR5, the Infectivity Titer In HOS-CD4 Cells Expressing CCR5 was 256 titer (1:x). Besides, the Infectivity Titer In HOS-CD4 Cells Expressing CXCR4 with CXCR4 was < 4 titer (1:x).
On to HIV-1 NL4-3 envelope, for which, in the assay with CCR1, the Infectivity Titer In HOS-CD4 Cells Expressing CCR1 was < 4 titer (1:x). In addition, the Infectivity Titer In HOS-CD4 Cells Expressing CCR3 in the assay with CCR3 is < 4 titer (1:x). For the same substance, the Infectivity Titer In HOS-CD4 Cells Expressing CCR4 in the assay with CCR4 is < 4 titer (1:x). Further, in the assay with CCR5, the Infectivity Titer In HOS-CD4 Cells Expressing CCR5 was 32 titer (1:x). Besides, in the assay with CXCR4, the Infectivity Titer In HOS-CD4 Cells Expressing CXCR4 is > 256 titer (1:x).
